# Patent publication US20130203080A1 (UNIVERSITE MONTPELLIER 2, published 2013)
# T1: PiT1 phosphate transporter on murine cells (CD4+ T cells; cerebellar cortex sections) (mouse, UniProt Q61609 1-681)
# T1 construct: whole, on cells
# T1 sequence: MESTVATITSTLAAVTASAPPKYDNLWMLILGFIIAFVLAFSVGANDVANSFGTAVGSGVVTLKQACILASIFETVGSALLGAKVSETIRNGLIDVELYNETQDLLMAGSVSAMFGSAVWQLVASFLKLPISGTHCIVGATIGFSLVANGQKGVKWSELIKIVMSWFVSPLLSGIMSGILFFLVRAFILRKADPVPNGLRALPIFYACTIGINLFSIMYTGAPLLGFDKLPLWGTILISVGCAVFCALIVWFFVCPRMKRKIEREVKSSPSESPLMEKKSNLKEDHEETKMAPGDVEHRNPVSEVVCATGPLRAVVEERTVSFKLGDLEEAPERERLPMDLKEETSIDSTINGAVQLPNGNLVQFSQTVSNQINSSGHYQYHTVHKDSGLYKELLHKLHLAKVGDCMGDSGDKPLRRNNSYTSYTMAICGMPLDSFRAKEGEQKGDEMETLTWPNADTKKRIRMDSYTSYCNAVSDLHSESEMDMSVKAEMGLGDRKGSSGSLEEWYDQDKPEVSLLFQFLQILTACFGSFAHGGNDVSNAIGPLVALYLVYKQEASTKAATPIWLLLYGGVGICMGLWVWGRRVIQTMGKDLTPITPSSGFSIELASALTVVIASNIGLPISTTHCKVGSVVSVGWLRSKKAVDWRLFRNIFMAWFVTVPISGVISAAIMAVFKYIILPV
# T2: PiT1 phosphate transporter on human cells (T cells, CD34 progenitor cells) (human, UniProt Q8WUM9 1-679)
# T2 construct: whole, on cells; also called GaLV Env receptor
# T2 sequence: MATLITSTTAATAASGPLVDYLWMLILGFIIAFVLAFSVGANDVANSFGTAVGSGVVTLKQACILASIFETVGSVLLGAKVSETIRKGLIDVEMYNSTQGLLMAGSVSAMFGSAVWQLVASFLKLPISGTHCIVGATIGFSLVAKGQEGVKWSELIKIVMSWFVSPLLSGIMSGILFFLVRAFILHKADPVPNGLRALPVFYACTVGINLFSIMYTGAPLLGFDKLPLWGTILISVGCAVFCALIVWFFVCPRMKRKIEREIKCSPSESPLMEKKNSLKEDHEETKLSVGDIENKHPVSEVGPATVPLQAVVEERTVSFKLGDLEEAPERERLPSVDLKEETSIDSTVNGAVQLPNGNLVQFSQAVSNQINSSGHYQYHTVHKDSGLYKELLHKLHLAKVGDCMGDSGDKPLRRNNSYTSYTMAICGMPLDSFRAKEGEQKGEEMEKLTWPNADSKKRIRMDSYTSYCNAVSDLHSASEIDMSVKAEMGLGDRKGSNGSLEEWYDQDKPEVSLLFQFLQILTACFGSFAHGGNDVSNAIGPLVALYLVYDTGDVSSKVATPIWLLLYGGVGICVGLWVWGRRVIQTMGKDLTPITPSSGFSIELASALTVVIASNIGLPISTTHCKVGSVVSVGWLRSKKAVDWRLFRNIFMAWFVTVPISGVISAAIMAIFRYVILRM
# T3: glucose transporter Glut1 on human cells (B cells, B-CLL cells, red blood cells, T cells) (human, UniProt P11166 1-492)
# T3 construct: whole, on cells; Endogenous receptor on primary human cells; the species follows from the cells; also called HTLV Env receptor
# T3 sequence: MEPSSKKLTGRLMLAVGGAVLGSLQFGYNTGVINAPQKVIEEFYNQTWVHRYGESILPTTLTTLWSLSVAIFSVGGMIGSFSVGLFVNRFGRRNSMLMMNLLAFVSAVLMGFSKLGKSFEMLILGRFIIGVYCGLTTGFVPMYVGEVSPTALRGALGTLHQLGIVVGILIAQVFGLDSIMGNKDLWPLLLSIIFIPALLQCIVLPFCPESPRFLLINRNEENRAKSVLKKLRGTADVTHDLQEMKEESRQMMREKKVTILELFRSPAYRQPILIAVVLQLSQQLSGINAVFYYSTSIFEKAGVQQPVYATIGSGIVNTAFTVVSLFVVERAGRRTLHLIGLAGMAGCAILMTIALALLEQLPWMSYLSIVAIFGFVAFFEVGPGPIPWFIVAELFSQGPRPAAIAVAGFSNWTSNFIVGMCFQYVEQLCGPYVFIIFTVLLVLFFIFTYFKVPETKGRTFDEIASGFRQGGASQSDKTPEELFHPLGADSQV
# B1: Gibbon Ape Leukemia virus (GALV) Env receptor binding domain, tagged soluble receptor binding ligand (ligand)
# chain: TSLQNKNPHQPMTLTWQVLSQTGDVVWDTKAVQPPWTWWPTLKPDVCALAASLESWDIPGTDVSSSKRVRPPDSDYTAAYKQITWGAIGCSYPRARTRMASSTFYVCPRDGRTLSEARRCGGLESLYCKEWDCETTGTGYWLSKSSKDLITVKWDQNSEWTQKFQQCHQTGWCNPLKIDFTDKGKLSKDWITGKTWGLRFYVSGHPGVQFTIRLKITNMPAVAVGPDLVLVEQGPPRTSLALPPPLPPREAPPPSLPDSNSTALATSAQTPTVRKTIVTLNTPPPTTGDRLFDLVQGAFLTLNATNPGATESCWLC
# notes: also called GaLV RBD; not shown: tag not specified
# B2: Gibbon ape Leukemia Virus-RBD soluble RBD-rFc fusion protein (Fc fusion)
# chain: B1 chain
# notes: also called GRBD; not shown: rabbit IgG Fc (rFc)
# B3: HTLV2 (SEQ ID NO: 28) tagged with a green fluorescent protein (GFP) (ligand)
# chain: QQSRCTLTVGISSYHSSPCSPTQPVCTWNLDLNSLTTDQRLHPPCPNLITYSGFHKTYSLYLFPHWIKKPNRQGLGYYSPSYNDPCSLQCPYLGCQSWTCPYTGPVSSPSWKFHSDVNFTQEVSQVSLRLHFSKCGSSMTLLVDAPGYDPLWFITSEPTQPPPTSPPLVHDSDLEHVLTPSTSWTTKILKFIQLTLQSTNYSCMVC
# notes: also called HRBD-EGFP; non antibody Glut1-ligand; not shown: green fluorescent protein tag (GFP / EGFP)
# How the values were obtained:
# [1] = target: T1, PiT1 phosphate transporter on murine …; assay: flow cytometry, RBD on murine CD4+ T cells polarised to Th0, Th1, Th2, Th17 or iTreg, day 4
# [2] = target: T2, PiT1 phosphate transporter on human …; assay: flow cytometry, tagged RBD on unstimulated and TCR-stimulated human T cells
# [3] = target: T1, PiT1 phosphate transporter on murine …; assay: fluorescence staining of mouse cerebellum cryosections with RBD-rFc, biotinylated anti-rabbit IgG, Streptavidin-Alexa488
# [4] = target: T3, glucose transporter Glut1 on human …; assay: flow cytometry, GFP-tagged RBD on human red blood cells
binder,measurement,setting,value
B1,binding result,[1],binds
same,binding result,[2],binds
B2,binding result,[3],binds
B3,binding result,[4],binds
